Laboratory results from the supplement of paper PMC9170038.

Tested on: MS2 coat protein
Test: apparent KD of MS2 coat protein; designed switch direction (-1 OFF switch, 1 ON switch): -1; higher = weaker reporter binding
How it was run: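 Designed RNA switches were transcribed on Illumina chips by stalled E. coli RNA polymerase and titrated with SNAP-549-labelled MS2 coat protein from 0.7 or 1.5 nM, doubling to 3 µM. Step length ran from 0.8–1.5 h at the lowest concentration to 10–20 min at the highest. The apparent KD is the median over clusters for each design, from curve-fitted normalised cluster fluorescence.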

[1] = Eterna round: R95, input ligand: FMN 200 uM
[2] = Eterna round: R95, input ligand: microRNA oligo, concentration not stated
[3] = Eterna round: R95, input ligand: none
[4] = input ligand: microRNA oligo, concentration not stated

CGUGUACUGCAGGAUAUCCUAGAUGCGGACAUCGGAGAAGGGCAGACAUGAGGAUCACCCAUGUGUGGCGGAGA [EX6 B.16] (Eterna round: R97, puzzle: Exclusion 6)
apparent KD of MS2 coat protein (input ligand: FMN 200 uM): 221 nM | apparent KD of MS2 coat protein (input ligand: none): 67.3 nM

GGUCAAGAACAGAUCCGCGCUGCCAUUGACCGCUCAUUUACAUGAGGAUCACCCAUGUUUUUUGCUCGUCUUACUAC [Edesso] (puzzle: Sensor v3, turn-off variant 2)
apparent KD of MS2 coat protein [1]: 20.8 nM | apparent KD of MS2 coat protein [2]: 61.4 nM | apparent KD of MS2 coat protein [3]: 19.3 nM

GCGUGACAUGAGGAUCACCCAUGUGAGGAUAUCUGGAUAAUCUUUAUUUUAGAUAUCCAGAGAAGGCACAUGCU [Ex1-3: 3Z] (puzzle: Exclusion 1)
apparent KD of MS2 coat protein [2]: 170 nM

UAUUAACAAGCGAGAUCCCACAUGAGGAUCACCCAUGUGCUCGUCUUAUAAGGUACUGUGACGAAAGUCACGGUACC [Sensor 3, v1 - 91 v2] (Eterna round: R97, puzzle: Sensor, turn-off variant 1)
apparent KD of MS2 coat protein (input ligand: FMN 200 uM): 17 nM | apparent KD of MS2 coat protein (input ligand: none): 15.7 nM

UUUUUAUAUGAAGGAUAUACUUAACAUGAGGAUCACCCAUGUGGUGUUGUGAGUGAGUGAGUUUAGUAGAAGGUCAAGGAUUUU [JMF's solution 35] (Eterna round: R96, puzzle: Exclusion NG 2)
apparent KD of MS2 coat protein (input ligand: FMN 200 uM): 598 nM | apparent KD of MS2 coat protein [4]: 456 nM | apparent KD of MS2 coat protein (input ligand: none): 161 nM

AAACAGCGAGGAUAUGCAGACGCUCCUUCCUCACGUCAAGGACAUGAGGAUCACCCAUGUAGAAGGCGCACAAC [Isriteti] (Eterna round: R97, puzzle: Exclusion 2)
apparent KD of MS2 coat protein (input ligand: FMN 200 uM): 116 nM | apparent KD of MS2 coat protein (input ligand: none): 76 nM

GGACCCAAAGGAUAUACUUGAGGAUCACCCAAGUAUGUCGCUUGGGCACGGUAAAGGAGUAGAAGGUUGGGAAA [Esri] (Eterna round: R97, puzzle: Exclusion 3)
apparent KD of MS2 coat protein (input ligand: FMN 200 uM): 17.6 nM | apparent KD of MS2 coat protein (input ligand: none): 14.4 nM

GAUUAUGCGAGCUUUAGGGACAUGAGGAUCACCCAUGUUCGUCUUAUUGGUCUGAGUGCACUAACAUACCUAAAUCU [JMF 31] (puzzle: Sensor v3, turn-off variant 1)
apparent KD of MS2 coat protein [1]: 23.1 nM | apparent KD of MS2 coat protein [2]: 37.3 nM | apparent KD of MS2 coat protein [3]: 22.8 nM

AAUACCCUGUUAGGAUAUAAUACCGAAGGAGUAUUAGAAGGGACAGUAAGGUACAUGAGGAUCACCCAUGUGAGAAUCUGUGCC [Edanxeve] (Eterna round: R96, puzzle: Exclusion NG 1)
apparent KD of MS2 coat protein (input ligand: FMN 200 uM): 107 nM | apparent KD of MS2 coat protein [4]: 65.3 nM | apparent KD of MS2 coat protein (input ligand: none): 75.4 nM

UUUUACUCAGGAUAUAUGAUGUGAAACAUGAGGAUCACCCAUGUAAUAUUAUGGAUGUAAAUAGAAGGGAGAUUUA [Mat - Exclusion 5 - JL mod - D16] (puzzle: Exclusion 5)
apparent KD of MS2 coat protein [1]: 46.4 nM | apparent KD of MS2 coat protein [2]: 45.5 nM | apparent KD of MS2 coat protein [3]: 59.5 nM

CAGGGCAUGCGAGGAUAUAGCAACAUGAGGAUCACCCAUGUAUAAGGGUGUCCUAGGCAUGCGCGCUAGAAGGCGCUGGUUCUC [Onreusve] (Eterna round: R96, puzzle: Exclusion NG 2)
apparent KD of MS2 coat protein (input ligand: FMN 200 uM): 431 nM | apparent KD of MS2 coat protein [4]: 18.9 nM | apparent KD of MS2 coat protein (input ligand: none): 75.5 nM

CUUUUGUGAGGAUAUCAGUAGUAAAAUAAUAAAUAUACUACUGAGAAGGCACAUGAGGAUCACCCAUGUUCCUC [Mat - Exclusion 4 - Mod of Salish - D74] (puzzle: Exclusion 4)
apparent KD of MS2 coat protein [2]: 35 nM

AAGAAGCAAGGAUAUACAGAGGAGAGUAAAGCAAGAGGAGAACAUGAGGAUCACCCAUGUAGAAGGUGCAGAGA [JR_Exclu2_Sub018] (puzzle: Exclusion 2)
apparent KD of MS2 coat protein [1]: 40.3 nM | apparent KD of MS2 coat protein [2]: 20.3 nM | apparent KD of MS2 coat protein [3]: 29.1 nM

UGAGCUUGAGGAUAUACAAGGCGACCGUGAGGUCGAGGUUUACAUGAGGAUCACCCAUGUAGAAGGCAAGUUCU [Mat - Exclusion 2 - JL Mod - D8] (Eterna round: R97, puzzle: Exclusion 2)
apparent KD of MS2 coat protein (input ligand: FMN 200 uM): 41.9 nM | apparent KD of MS2 coat protein (input ligand: none): 18.5 nM
